Test [1] deals with IGF-1R on cells (human) (UniProt P08069). The experiment in a line: cell-based or functional assay.
For test [2] the target is unchanged. Kind of test: 125I-IGF-1 binding to MCF-7L cells with antibody at 100 ng/mL.
Test [3] shares this target. Kind of test: 125I-IGF-1 binding to MCF-7L cells with antibody at 1000 ng/mL.
Test [4] has the same target. The experiment in a line: flow cytometry (FACScan), MCF-7 cells.
Test [5] has the same target. Kind of test: flow cytometry (FACScan), DU 145 cells. In general terms: A flow cytometer gives signals particle by particle.
For test [6] the target is unchanged. Kind of test: flow cytometry (FACScan), ME-180 cells.
Test [7] addresses T1, recombinant human IGF-1R (R&D Systems, Catalog # 391-GR) (human, UniProt P08069 31-935).
T1 construct: extracellular domain; immobilized on ELISA plates or polystyrene beads; also called rhIGF-1R; IGF-1R-coated beads
Kind of test: rhIGF-1R on polystyrene beads (not shown).

Test [8] addresses recombinant human IGF-1R (R&D Systems, Catalog # 391-GR) (human) (UniProt P08069). The experiment in a line: ELISA on immobilized rhIGF-1R (not shown); cR1 from clones 709.2D2 and 710.2G2, same affinity. For orientation: An ELISA detects its analyte on a solid surface through an enzyme-linked reagent.

IGF-1R on cells (human), sequence (P08069 31-1367): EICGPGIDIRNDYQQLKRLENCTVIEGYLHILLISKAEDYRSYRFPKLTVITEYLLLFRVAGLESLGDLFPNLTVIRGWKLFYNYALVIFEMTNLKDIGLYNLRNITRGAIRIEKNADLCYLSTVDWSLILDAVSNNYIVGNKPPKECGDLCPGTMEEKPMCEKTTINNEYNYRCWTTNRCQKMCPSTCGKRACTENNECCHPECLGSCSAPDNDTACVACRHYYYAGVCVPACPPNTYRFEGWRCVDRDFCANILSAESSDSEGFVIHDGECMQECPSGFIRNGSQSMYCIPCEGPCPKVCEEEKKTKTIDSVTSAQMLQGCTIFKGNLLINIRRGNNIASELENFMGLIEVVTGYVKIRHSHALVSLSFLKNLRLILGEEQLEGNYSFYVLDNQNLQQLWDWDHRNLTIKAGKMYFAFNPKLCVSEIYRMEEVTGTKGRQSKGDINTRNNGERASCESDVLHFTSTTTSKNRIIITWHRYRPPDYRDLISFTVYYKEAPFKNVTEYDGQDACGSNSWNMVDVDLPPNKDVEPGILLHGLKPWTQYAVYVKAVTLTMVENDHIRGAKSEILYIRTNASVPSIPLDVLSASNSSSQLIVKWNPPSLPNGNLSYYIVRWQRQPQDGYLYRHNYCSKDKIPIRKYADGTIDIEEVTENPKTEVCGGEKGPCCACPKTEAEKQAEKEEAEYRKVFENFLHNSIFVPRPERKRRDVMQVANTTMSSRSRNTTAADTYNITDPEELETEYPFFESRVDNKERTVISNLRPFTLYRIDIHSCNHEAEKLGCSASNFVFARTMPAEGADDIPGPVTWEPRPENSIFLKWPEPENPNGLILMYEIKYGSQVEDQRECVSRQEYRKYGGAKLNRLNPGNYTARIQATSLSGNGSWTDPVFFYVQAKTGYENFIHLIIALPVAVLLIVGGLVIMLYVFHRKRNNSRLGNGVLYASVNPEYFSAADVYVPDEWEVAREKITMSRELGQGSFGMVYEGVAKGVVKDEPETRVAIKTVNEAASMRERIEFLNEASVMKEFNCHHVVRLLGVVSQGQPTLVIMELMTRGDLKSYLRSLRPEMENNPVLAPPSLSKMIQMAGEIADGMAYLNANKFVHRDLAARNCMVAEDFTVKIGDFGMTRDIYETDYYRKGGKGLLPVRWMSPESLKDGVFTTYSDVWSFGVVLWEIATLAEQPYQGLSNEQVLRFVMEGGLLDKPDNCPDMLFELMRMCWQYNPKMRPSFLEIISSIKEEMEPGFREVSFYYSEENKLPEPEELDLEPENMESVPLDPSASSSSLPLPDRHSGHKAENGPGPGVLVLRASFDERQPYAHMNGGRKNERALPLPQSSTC
T1 sequence (P08069 31-935): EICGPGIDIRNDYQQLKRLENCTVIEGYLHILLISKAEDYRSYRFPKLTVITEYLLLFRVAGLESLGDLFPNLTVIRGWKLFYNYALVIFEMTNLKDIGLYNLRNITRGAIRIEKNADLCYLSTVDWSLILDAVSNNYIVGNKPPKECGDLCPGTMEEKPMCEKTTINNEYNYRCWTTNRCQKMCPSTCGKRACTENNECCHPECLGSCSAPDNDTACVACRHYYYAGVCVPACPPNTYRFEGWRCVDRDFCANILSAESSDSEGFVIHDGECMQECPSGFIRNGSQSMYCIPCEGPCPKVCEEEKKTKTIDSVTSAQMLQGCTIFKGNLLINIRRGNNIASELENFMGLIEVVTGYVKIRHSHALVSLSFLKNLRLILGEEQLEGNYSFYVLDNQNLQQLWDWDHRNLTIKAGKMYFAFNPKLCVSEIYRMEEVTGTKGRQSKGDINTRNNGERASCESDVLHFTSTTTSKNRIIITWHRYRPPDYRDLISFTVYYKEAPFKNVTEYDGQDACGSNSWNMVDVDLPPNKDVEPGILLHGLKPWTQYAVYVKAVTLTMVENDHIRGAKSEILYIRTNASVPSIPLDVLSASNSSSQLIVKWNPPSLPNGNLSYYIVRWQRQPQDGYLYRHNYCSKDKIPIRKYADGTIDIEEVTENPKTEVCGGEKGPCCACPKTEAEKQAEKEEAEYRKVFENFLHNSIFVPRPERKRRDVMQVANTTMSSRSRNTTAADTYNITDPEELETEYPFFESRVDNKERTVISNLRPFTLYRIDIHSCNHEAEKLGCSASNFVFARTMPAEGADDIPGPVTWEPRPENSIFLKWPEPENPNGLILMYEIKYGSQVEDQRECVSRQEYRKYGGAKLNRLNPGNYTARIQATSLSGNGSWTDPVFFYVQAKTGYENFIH
recombinant human IGF-1R (R&D Systems, Catalog # 391-GR) (human), sequence (P08069 31-935): as above

As for MAB391 (antibody), in the test with IGF-1R on cells (human) [1], the maximum growth inhibition, 786-O cells (8 nM), serum-free, IGF-1 100 ng/mL, MTS amounted to 34%; the maximum growth inhibition, ACHN cells (200 nM), serum-free, IGF-1 100 ng/mL, MTS was determined as 48%; the maximum growth inhibition, Caki-2 cells (8 nM), serum-free, IGF-1 100 ng/mL, MTS is 50%. In the test with IGF-1R on cells (human) [2], this molecule showed a % binding of 125I-IGF-1 to MCF-7L of 54%. The molecule also came in with a % binding of 125I-IGF-1 to MCF-7L with IGF-1R on cells (human) [3] of 38%.

B1: hR1 (antibody, IgG1, V domains shown)
VH: QVQLQESGGGVVQPGRSLRLSCSASGFTFSDYYMYWVRQAPGKGLEWVAYITNYGGSTYYPDTVKGRFTISRDNAKNTLFLQMDSLRPEDTGVYFCARQSNYDYDGWFAYWGQGTPVTVSS
VL: DIQLTQSPSSLSASVGDRVTITCKASQEVGTAVAWYQQKPGKAPKLLIYWASTRHTGVPSRFSGSGSGTDFTFTISSLQPEDIATYFCQQYSNYPLTFGQGTKVEIKR
notes: also called humanized anti-IGF-1R; hR1 IgG
For the molecule B1, in the test with IGF-1R on cells (human) [1], the concentration giving complete receptor down-regulation was 10 nM; the maximum growth inhibition, 786-O cells (8 nM), serum-free, IGF-1 100 ng/mL, MTS worked out at 26%; the maximum growth inhibition, ACHN cells (200 nM), serum-free, IGF-1 100 ng/mL, MTS amounted to 3%; the maximum growth inhibition, Caki-2 cells (8 nM), serum-free, IGF-1 100 ng/mL, MTS amounted to 33%. In the test with IGF-1R on cells (human) [4], the % Positive turned out to be 89.2% and the MFI came out at 9.93. Further, in the test with IGF-1R on cells (human) [5], the % Positive came out at 30.4% and the MFI worked out at 5.33. In the test with IGF-1R on cells (human) [6], this molecule showed a % Positive of 10.7% and an MFI of 3.65. The binding result in test [7] was “binds”.

B2: Hex-hR1 (antibody, V domains shown, not shown: a dimerising Fc or GST; small tags and cut ends)
VH: B1 VH
VL: DIQLTQSPSSLSASVGDRVTITCKASQEVGTAVAWYQQKPGKAPKLLIYWASTRHTGVPSRFSGSGSGTDFTFTISSLQPEDIATYFCQQYSNYPLTFGQGTKVEIK
modifications: DNL complex: one IgG-AD2 and four Fab-DDD2, disulfide-locked through AD2 and DDD2. All six Fabs carry the same hR1 VH/VK [CUT]
As to B2, in the test with IGF-1R on cells (human) [1], the maximum growth inhibition, 786-O cells (8 nM), serum-free, IGF-1 100 ng/mL, MTS is 35%; the maximum growth inhibition, ACHN cells (200 nM), serum-free, IGF-1 100 ng/mL, MTS worked out at 48%; the maximum growth inhibition, Caki-2 cells (8 nM), serum-free, IGF-1 100 ng/mL, MTS amounted to 43%.

B3: 1R-E1 (bispecific antibody, part only; not given: hRS7 Fab-DDD2 module, not shown: a dimerising Fc or GST)
heavy (part 1 of 2): B1 VH
heavy (part 2 of 2): GSGGGGSGGCGQIEYLAKQIVDNAIQQAGC
light: B1 VL
In the test with IGF-1R on cells (human) [1], B3 returned a concentration substantially reducing the level of IGF-1R in MCF-7, DU-145 and LnCap of 0.1 nM.

B4: cR1 (antibody, from another filing, V domains shown)
VH: EVKLVESGGGLVQPGGSLKLSCATSGFTFSDYYMYWVRQTPEKRLEWVAYITNYGGSTYYPDTVKGRFTISRDNAKNTLYLQMSRLRSEDTAMYFCARQSNYDYDGWFAYWGQGTTVTVSS
VL: DIVMTQSHKFMSTSVGDRVSITCKASQEVGTAVAWYQQKPGQSPKLLIYWASTRHTGVPDRFTGSGSGTDFTLTISNVQSEDLADYFCQQYSNYPLTFGAGAKLELKR
The term Kd denotes the equilibrium constant for the complex coming apart. For the molecule B4, the equilibrium dissociation constant (Kd) in test [8] came out at 0.1 nM.
